Legend:
[1] = target: T1, heat shock cognate protein 70 (Hsc70), recombinant (human, UniProt P11142 1-646); assay: SPR; Biacore 8K; Hsc70 immobilised on a CM5 chip; GDAz-3 at 1 uM preincubated with GPX4 (ternary-complex measurement); PBS pH 7.4, 30 uL/min, 25 °C, 120 s association and 120 s dissociation; settings: both partners purified
T1 construct: Hsc70 (HSPA8), human, bought recombinant protein; see the vendor's data sheet for HY-P73915A; also called HSPA8; heat shock cognate 70 protein; source: bought: MedChemExpress, #HY-P73915A (recombinant protein)
T1 sequence (P11142 whole entry): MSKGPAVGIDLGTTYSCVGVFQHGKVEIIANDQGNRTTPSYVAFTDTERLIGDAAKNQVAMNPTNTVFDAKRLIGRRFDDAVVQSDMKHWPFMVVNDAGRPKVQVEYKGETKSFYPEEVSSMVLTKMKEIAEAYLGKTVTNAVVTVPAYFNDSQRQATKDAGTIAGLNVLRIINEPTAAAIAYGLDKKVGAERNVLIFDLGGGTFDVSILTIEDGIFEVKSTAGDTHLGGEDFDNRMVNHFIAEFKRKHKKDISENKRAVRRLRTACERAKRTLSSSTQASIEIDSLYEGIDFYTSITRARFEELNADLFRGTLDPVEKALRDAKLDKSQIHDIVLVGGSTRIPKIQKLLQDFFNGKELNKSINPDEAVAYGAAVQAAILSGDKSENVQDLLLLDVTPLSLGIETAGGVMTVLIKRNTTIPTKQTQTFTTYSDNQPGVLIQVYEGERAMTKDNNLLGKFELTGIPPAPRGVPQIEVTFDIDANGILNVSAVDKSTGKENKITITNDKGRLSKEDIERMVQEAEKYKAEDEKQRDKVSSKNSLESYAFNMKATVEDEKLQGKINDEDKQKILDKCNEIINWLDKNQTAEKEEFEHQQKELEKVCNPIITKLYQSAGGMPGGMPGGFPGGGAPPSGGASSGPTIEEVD

[2] = target: T1, heat shock cognate protein 70 (Hsc70), …; assay: SPR; Biacore 8K; human Hsc70 immobilised on a CM5 chip; GPX4 without compound (binary complex); PBS pH 7.4 running buffer, 30 uL/min, 25 °C, 120 s association and 120 s dissociation; settings: both partners purified

B1: glutathione peroxidase 4 (GPX4), recombinant (enzyme)
chain: MCASRDDWRCARSMHEFSAKDIDGHMVNLDKYRGFVCIVTNVASQUGKTEVNYTQLVDLHARYAECGLRILAFPCNQFGKQEPGSNEEIKEFAAGYNVKFDMFSKICVNGDDAHPLWKWMKIQPKGKGILGNAIKWNFTKFLIDKNGCVVKRYGPMEEPLVIEKDLPHYF
modifications: Limits are by convention: cytosolic isoform, starting at precursor Met28 (paper numbering + 27, so Sec46 = U73; matches the start of 6HKQ). The commercial protein's limits and tag are not stated. …
KD with GDAz-3 [1]: 23.9 nM | Kd [2]: 100 nM

Source: PMC12948223, “HSP70 Interactome‐Mediated Proteolysis Targeting Chimera (HSP70‐PROTAC) for Ferroptosis‐Driven Cancer Treatment” (Advanced Science, 2025)
